{
  "source": "paper PMC4806843",
  "about": "“Structural and Functional Analysis of Calcium Ion Mediated Binding of 5-Lipoxygenase to Nanodiscs” (PLoS ONE, 2016)",
  "target": "the molecule itself",
  "assay": "SEC; size exclusion chromatography of the purified 5LO preparation; standards aldolase (158 kDa) and conalbumin (75 kDa); two peaks, dimer and monomer",
  "data": [
    {"protein": "human 5-lipoxygenase (enzyme, UniProt P09917 1-674, looked up, 5-lipoxygenase (5LO), human, recombinant from pT3-5LO; 78 kDa; The preparation holds monomer and dimer, which were separated by SEC; also called 5LO; monomeric 5LO; source: E. coli BL21-(DE3) transformed with pT3-5LO, purified (ammonium sulfate precipitation, ATP agarose, gel filtration)) MPSYTVTVATGSQWFAGTDDYIYLSLVGSAGCSEKHLLDKPFYNDFERGAVDSYDVTVDEELGEIQLVRIEKRKYWLNDDWYLKYITLKTPHGDYIEFPCYRWITGDVEVVLRDGRAKLARDDQIHILKQHRRKELETRQKQYRWMEWNPGFPLSIDAKCHKDLPRDIQFDSEKGVDFVLNYSKAMENLFINRFMHMFQSSWNDFADFEKIFVKISNTISERVMNHWQEDLMFGYQFLNGCNPVLIRRCTELPEKLPVTTEMVECSLERQLSLEQEVQQGNIFIVDFELLDGIDANKTDPCTLQFLAAPICLLYKNLANKIVPIAIQLNQIPGDENPIFLPSDAKYDWLLAKIWVRSSDFHVHQTITHLLRTHLVSEVFGIAMYRQLPAVHPIFKLLVAHVRFTIAINTKAREQLICECGLFDKANATGGGGHVQMVQRAMKDLTYASLCFPEAIKARGMESKEDIPYYFYRDDGLLVWEAIRTFTAEVVDIYYEGDQVVEEDPELQDFVNDVYVYGMRGRKSSGFPKSVKSREQLSEYLTVVIFTASAQHAAVNFGQYDWCSWIPNAPPTMRAPPPTAKGVVTIEQIVDTLPDRGRSCWHLGAVWALSQFQENELFLGMYPEEHFIEKPVKEAMARFRKNLEAIVSVIAERNKKKQLPYYYLSPDRIPNSVAI", "values": [
      {"measurement": "stoichiometry N", "result": 2}
    ]}
  ]
}
